Assay results taken from publication PMC6028238.

Key:
[1] = target: protein H on the surface of S. pyogenes AP1 bacteria (Streptococcus pyogenes (endogenous in strain AP1)); assay: electron microscopy with gold-labelled protein
[2] = target: human C4b-binding protein (C4BP), purified from plasma (human) (UniProt P04003); assay: negative-stain electron microscopy
[3] = target: protein H on the surface of S. pyogenes AP1 bacteria (Streptococcus pyogenes (endogenous in strain AP1)); assay: flow cytometry on cells

human C4b-binding protein (C4BP), purified from plasma (from UniProt P04003 49-597; P20851 18-252) (complex)
gold particles of C4BP bound to the surface, with IgG (gold particles/mm^2) [1]: 917
gold particles of C4BP bound to the surface, without IgG (gold particles/mm^2) [1]: 82

protein H (Streptococcus pyogenes), recombinant (natural protein)
percent of C4BP molecules complexed with protein H, with IgG [2]: 83%
percent of C4BP molecules complexed with protein H, without IgG [2]: 7%

B1: human C4BP in serum of human C4BP transgenic mice (natural protein)
chain: NCGPPPTLSFAAPMDITLTETRFKTGTTLKYTCLPGYVRSHSTQTLTCNSDGEWVYNTFCIYKRCRHPGELRNGQVEIKTDLSFGSQIEFSCSEGFFLIGSTTSRCEVQDRGVGWSHPLPQCEIVKCKPPPDIRNGRHSGEENFYAYGFSVTYSCDPRFSLLGHASISCTVENETIGVWRPSPPTCEKITCRKPDVSHGEMVSGFGPIYNYKDTIVFKCQKGFVLRGSSVIHCDADSKWNPSPPACEPNSCINLPDIPHASWETYPRPTKEDVYVVGTVLRYRCHPGYKPTTDEPTTVICQKNLRWTPYQGCEALCCPEPKLNNGEITQHRKSRPANHCVYFYGDEISFSCHETSRFSAICQGDGTWSPRTPSCGDICNFPPKIAHGHYKQSSSYSFFKEEIIYECDKGYILVGQAKLSCSYSHWSAPAPQCKALCRKPELVNGRLSVDKDQYVEPENVTIQCDSGYGVVGPQSITCSGNRTWYPEVPKCEWETPEGCEQVLTGKRLMQCLPNPEDVKMALEVYKLSLEIEQLELQRDSARQSTLDKEL
C4BP binding without IgG at 30 °C, as percent of the binding with IVIG [3]: 40%
C4BP binding without IgG at 39 °C, as percent of the binding with IVIG [3]: < 10%
fold increase of binding with 1 mg/ml IVIG against no IVIG [3]: 2 fold
